Test results: US20230416365A1 (Hoffmann-La Roche, published 2023)

T1: N(A2B2)A-avi-His (biotinylated at the avi tag)
T1 construct: also called biotinylated N(A2B2)A-avi-His
T1 chain: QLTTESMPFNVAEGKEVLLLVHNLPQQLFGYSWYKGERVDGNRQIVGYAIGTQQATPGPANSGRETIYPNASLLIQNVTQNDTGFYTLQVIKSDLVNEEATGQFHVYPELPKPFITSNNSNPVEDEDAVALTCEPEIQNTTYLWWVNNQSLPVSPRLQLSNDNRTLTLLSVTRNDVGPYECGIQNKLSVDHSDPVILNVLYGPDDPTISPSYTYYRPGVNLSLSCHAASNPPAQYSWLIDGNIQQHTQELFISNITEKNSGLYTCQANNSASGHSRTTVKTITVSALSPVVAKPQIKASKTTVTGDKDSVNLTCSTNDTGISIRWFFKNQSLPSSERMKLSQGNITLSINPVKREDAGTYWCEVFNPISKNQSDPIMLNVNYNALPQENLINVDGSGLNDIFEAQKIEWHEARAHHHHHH


Biological target: T1, N(A2B2)A-avi-His
Test: SPR, ProteOn, antigen on NLC chip, bispecific IgG as analyte
Procedure: About 2000, 1000, 500, and 250 RU of biotinylated N(A2B2)A-avi-His were immobilized on 4 channels of a Streptavidin-coated NLC chip in vertical orientation. As a control for non-specific binding, 2000 RU of biotinylated NA(B2)A-avi-His protein was immobilized on channel 5. For the determination of the affinity (KD) of the purified bispecific constructs, injection direction was changed to horizontal orientation. […] Buffer (PBST) was injected along the sixth channel to provide an “in-line” blank for referencing. Regeneration was performed with 10 mM glycine pH 1.5 for 20 s at 50 ul/min (vertical orientation).
Association rate constants (kon) and dissociation rate constants (koff) were calculated using a simple one-to-one Langmuir binding model in ProteOn Manager v3.1 software by simultaneously fitting the association and dissociation sensorgrams. The equilibrium dissociation constant (KD) was calculated as the ratio koff/kon.

| Kd | koff | kon | Binder |
| --- | --- | --- | --- |
| 0.33 nM | 8.87e-05 s⁻¹ | 269000 M⁻¹ s⁻¹ | bispecific CEA (P005.097)-CD28 (SA Variant 15) 1+1 IgG (bispecific antibody, knob-into-hole, crossmab, PG-LALA) heavy 1: EIVLTQSPATLSLSPGERATLSCRASSSVTYIHWYQQKPGQAPRSWIYATSNLASGIPARFSGSGSGTDFTLTISSLEPEDFAVYYCQHWSSQPPTFGQGTKLEIKSSASTKGPSVFPLAPSSKSTSGGTAALGCLVKDYFPEPVTVSWNSGALTSGVHTFPAVLQSSGLYSLSSVVTVPSSSLGTQTYICNVNHKPSNTKVDKKVEPKSCDKTHTCPPCPAPEAAGGPSVFLFPPKPKDTLMISRTPEVTCVVVDVSHEDPEVKFNWYVDGVEVHNAKTKPREEQYNSTYRVVSVLTVLHQDWLNGKEYKCKVSNKALGAPIEKTISKAKGQPREPQVCTLPPSRDELTKNQVSLSCAVKGFYPSDIAVEWESNGQPENNYKTTPPVLDSDGSFFLVSKLTVDKSRWQQGNVFSCSVMHEALHNHYTQKSLSLSP light 1: EVQLLESGGGLVQPGGSLRLSCAASGFTFTDYYMNWVRQAPGKGLEWLGFIGNKANAYTTEYSASVKGRFTISRDKSKNTLYLQMNSLRAEDTATYYCTRDRGLRFSFDYWGQGTTVTVSSASVAAPSVFIFPPSDEQLKSGTASVVCLLNNFYPREAKVQWKVDNALQSGNSQESVTEQDSKDSTYSLSSTLTLSKADYEKHKVYACEVTHQGLSSPVTKSFNRGEC heavy 2: not shown light 2: not shown |
| 0.08 nM | 1.85e-05 s⁻¹ | 225000 M⁻¹ s⁻¹ | bispecific CEA (P005.102-combo2)-CD28 (SA Variant 15) 1+1 IgG (bispecific antibody, knob-into-hole, crossmab, PG-LALA) heavy 1: EIVLTQSPATLSLSPGERATLSCRASSSVTYIHWYQQKPGQAPRSWIYATSNLASGIPARFSGSGSGTDFTLTISSLEPEDFAVYYCQHWSSKSPTFGQGTKLEIKSSASTKGPSVFPLAPSSKSTSGGTAALGCLVKDYFPEPVTVSWNSGALTSGVHTFPAVLQSSGLYSLSSVVTVPSSSLGTQTYICNVNHKPSNTKVDKKVEPKSCDKTHTCPPCPAPEAAGGPSVFLFPPKPKDTLMISRTPEVTCVVVDVSHEDPEVKFNWYVDGVEVHNAKTKPREEQYNSTYRVVSVLTVLHQDWLNGKEYKCKVSNKALGAPIEKTISKAKGQPREPQVCTLPPSRDELTKNQVSLSCAVKGFYPSDIAVEWESNGQPENNYKTTPPVLDSDGSFFLVSKLTVDKSRWQQGNVFSCSVMHEALHNHYTQKSLSLSP light 1: EVQLLESGGGLVQPGGSLRLSCAASGFYFSDYYMNWVRQAPGKGLEWLGVISNKANAYTTEYSASVKGRFTISRDKSKNTLYLQMNSLRAEDTATYYCTRDRGIRFQFDYWGQGTTVTVSSASVAAPSVFIFPPSDEQLKSGTASVVCLLNNFYPREAKVQWKVDNALQSGNSQESVTEQDSKDSTYSLSSTLTLSKADYEKHKVYACEVTHQGLSSPVTKSFNRGEC heavy 2: not shown light 2: not shown |
| 0.06 nM | 1.23e-05 s⁻¹ | 207000 M⁻¹ s⁻¹ | bispecific CEA (P005.102-combo1)-CD28 (SA Variant 15) 1+1 IgG (bispecific antibody, knob-into-hole, crossmab, PG-LALA) heavy 1: EIVLTQSPATLSLSPGERATLSCRASSSVTYIHWYQQKPGQAPRSWIYATSNLASGIPARFSGSGSGTDFTLTISSLEPEDFAVYYCQHWSSKSPTFGQGTKLEIKSSASTKGPSVFPLAPSSKSTSGGTAALGCLVKDYFPEPVTVSWNSGALTSGVHTFPAVLQSSGLYSLSSVVTVPSSSLGTQTYICNVNHKPSNTKVDKKVEPKSCDKTHTCPPCPAPEAAGGPSVFLFPPKPKDTLMISRTPEVTCVVVDVSHEDPEVKFNWYVDGVEVHNAKTKPREEQYNSTYRVVSVLTVLHQDWLNGKEYKCKVSNKALGAPIEKTISKAKGQPREPQVCTLPPSRDELTKNQVSLSCAVKGFYPSDIAVEWESNGQPENNYKTTPPVLDSDGSFFLVSKLTVDKSRWQQGNVFSCSVMHEALHNHYTQKSLSLSP light 1: EVQLLESGGGLVQPGGSLRLSCAASGFYFTDYYMNWVRQAPGKGLEWLGVISNKANAYTTEYSASVKGRFTISRDKSKNTLYLQMNSLRAEDTATYYCTRDRGIRFQFDYWGQGTTVTVSSASVAAPSVFIFPPSDEQLKSGTASVVCLLNNFYPREAKVQWKVDNALQSGNSQESVTEQDSKDSTYSLSSTLTLSKADYEKHKVYACEVTHQGLSSPVTKSFNRGEC heavy 2: not shown light 2: not shown |
| 0.39 nM | 9.7e-05 s⁻¹ | 249000 M⁻¹ s⁻¹ | bispecific CEA (P002.139)-CD28 (SA Variant 15) 1+1 IgG (bispecific antibody, knob-into-hole, crossmab, PG-LALA) heavy 1: EIVLTQSPATLSLSPGERATLSCHASSSVTYIHWYQQKPGQAPRSWIYATSNLASGIPARFSGSGSGTDFTLTISSLEPEDFAVYYCQHWSSKPPTFGQGTKLEIKSSASTKGPSVFPLAPSSKSTSGGTAALGCLVKDYFPEPVTVSWNSGALTSGVHTFPAVLQSSGLYSLSSVVTVPSSSLGTQTYICNVNHKPSNTKVDKKVEPKSCDKTHTCPPCPAPEAAGGPSVFLFPPKPKDTLMISRTPEVTCVVVDVSHEDPEVKFNWYVDGVEVHNAKTKPREEQYNSTYRVVSVLTVLHQDWLNGKEYKCKVSNKALGAPIEKTISKAKGQPREPQVCTLPPSRDELTKNQVSLSCAVKGFYPSDIAVEWESNGQPENNYKTTPPVLDSDGSFFLVSKLTVDKSRWQQGNVFSCSVMHEALHNHYTQKSLSLSP light 1: EVQLLESGGGLVQPGGSLRLSCAASGFYFTDYAMNWVRQAPGKGLEWLGVISNKANAYTTEYSASVKGRFTISRDKSKNTLYLQMNSLRAEDTATYYCTRDRGLRFYFDYWGQGTTVTVSSASVAAPSVFIFPPSDEQLKSGTASVVCLLNNFYPREAKVQWKVDNALQSGNSQESVTEQDSKDSTYSLSSTLTLSKADYEKHKVYACEVTHQGLSSPVTKSFNRGEC heavy 2: not shown light 2: not shown |
| 0.44 nM | 0.000112 s⁻¹ | 257000 M⁻¹ s⁻¹ | bispecific CEA (P005.103)-CD28 (SA Variant 15) 1+1 IgG (bispecific antibody, knob-into-hole, crossmab, PG-LALA) heavy 1: EIVLTQSPATLSLSPGERATLSCRASSSVTYIHWYQQKPGQAPRSWIYATSNLASGIPARFSGSGSGTDFTLTISSLEPEDFAVYYCQHWSSISPTFGQGTKLEIKSSASTKGPSVFPLAPSSKSTSGGTAALGCLVKDYFPEPVTVSWNSGALTSGVHTFPAVLQSSGLYSLSSVVTVPSSSLGTQTYICNVNHKPSNTKVDKKVEPKSCDKTHTCPPCPAPEAAGGPSVFLFPPKPKDTLMISRTPEVTCVVVDVSHEDPEVKFNWYVDGVEVHNAKTKPREEQYNSTYRVVSVLTVLHQDWLNGKEYKCKVSNKALGAPIEKTISKAKGQPREPQVCTLPPSRDELTKNQVSLSCAVKGFYPSDIAVEWESNGQPENNYKTTPPVLDSDGSFFLVSKLTVDKSRWQQGNVFSCSVMHEALHNHYTQKSLSLSP light 1: EVQLLESGGGLVQPGGSLRLSCAASGFTFTDYYMNWVRQAPGKGLEWLGFIGNKANAYTTEYSASVKGRFTISRDKSKNTLYLQMNSLRAEDTATYYCTRDRGIRFYFDYWGQGTTVTVSSASVAAPSVFIFPPSDEQLKSGTASVVCLLNNFYPREAKVQWKVDNALQSGNSQESVTEQDSKDSTYSLSSTLTLSKADYEKHKVYACEVTHQGLSSPVTKSFNRGEC heavy 2: not shown light 2: not shown |

Second part, the binder before the results:

| Binder | Kd | koff | kon |
| --- | --- | --- | --- |
| bispecific CEA (A5H1EL1D)-CD28 (SA Variant 15) 1+1 IgG of Example 10.3 (bispecific antibody, knob-into-hole, crossmab, PG-LALA) heavy 1: EVQLLESGGGLVQPGGSLRLSCAASGFTFTDYYMNWVRQAPGKGLEWLGFIGNKANAYTTEYSASVKGRFTISRDKSKNTLYLQMNSLRAEDTATYYCTRDRGLRFYFDYWGQGTTVTVSSASTKGPSVFPLAPSSKSTSGGTAALGCLVKDYFPEPVTVSWNSGALTSGVHTFPAVLQSSGLYSLSSVVTVPSSSLGTQTYICNVNHKPSNTKVDKKVEPKSCDKTHTCPPCPAPEAAGGPSVFLFPPKPKDTLMISRTPEVTCVVVDVSHEDPEVKFNWYVDGVEVHNAKTKPREEQYNSTYRVVSVLTVLHQDWLNGKEYKCKVSNKALGAPIEKTISKAKGQPREPQVCTLPPSRDELTKNQVSLSCAVKGFYPSDIAVEWESNGQPENNYKTTPPVLDSDGSFFLVSKLTVDKSRWQQGNVFSCSVMHEALHNHYTQKSLSLSP light 1: EIVLTQSPATLSLSPGERATLSCRASSSVTYIHWYQQKPGQAPRSWIYATSNLASGIPARFSGSGSGTDFTLTISSLEPEDFAVYYCQHWSSKPPTFGQGTKLEIKRTVAAPSVFIFPPSDEQLKSGTASVVCLLNNFYPREAKVQWKVDNALQSGNSQESVTEQDSKDSTYSLSSTLTLSKADYEKHKVYACEVTHQGLSSPVTKSFNRGEC heavy 2: not shown light 2: not shown | 2.11 nM | 0.000333 s⁻¹ | 158000 M⁻¹ s⁻¹ |
| bispecific CEA (P005.102)-CD28 (SA Variant 15) 1+1 IgG (bispecific antibody, knob-into-hole, crossmab, PG-LALA) heavy 1: EIVLTQSPATLSLSPGERATLSCRASSSVTYIHWYQQKPGQAPRSWIYATSNLASGIPARFSGSGSGTDFTLTISSLEPEDFAVYYCQHWSSKSPTFGQGTKLEIKSSASTKGPSVFPLAPSSKSTSGGTAALGCLVKDYFPEPVTVSWNSGALTSGVHTFPAVLQSSGLYSLSSVVTVPSSSLGTQTYICNVNHKPSNTKVDKKVEPKSCDKTHTCPPCPAPEAAGGPSVFLFPPKPKDTLMISRTPEVTCVVVDVSHEDPEVKFNWYVDGVEVHNAKTKPREEQYNSTYRVVSVLTVLHQDWLNGKEYKCKVSNKALGAPIEKTISKAKGQPREPQVCTLPPSRDELTKNQVSLSCAVKGFYPSDIAVEWESNGQPENNYKTTPPVLDSDGSFFLVSKLTVDKSRWQQGNVFSCSVMHEALHNHYTQKSLSLSP light 1: EVQLLESGGGLVQPGGSLRLSCAASGFTFTDYYMNWVRQAPGKGLEWLGFIGNKANAYTTEYSASVKGRFTISRDKSKNTLYLQMNSLRAEDTATYYCTRDRGIRFQFDYWGQGTTVTVSSASVAAPSVFIFPPSDEQLKSGTASVVCLLNNFYPREAKVQWKVDNALQSGNSQESVTEQDSKDSTYSLSSTLTLSKADYEKHKVYACEVTHQGLSSPVTKSFNRGEC heavy 2: not shown light 2: not shown | 0.2 nM | 3.31e-05 s⁻¹ | 160000 M⁻¹ s⁻¹ |
| bispecific CEA (P001.177)-CD28 (SA Variant 15) 1+1 IgG (bispecific antibody, knob-into-hole, crossmab, PG-LALA) heavy 1: EIVLTQSPATLSLSPGERATLSCRASSSVTYIHWYQQKPGQAPRSWIYATSNLASGIPARFSGSGSGTDFTLTISSLEPEDFAVYYCQHWSSKPPTFGQGTKLEIKSSASTKGPSVFPLAPSSKSTSGGTAALGCLVKDYFPEPVTVSWNSGALTSGVHTFPAVLQSSGLYSLSSVVTVPSSSLGTQTYICNVNHKPSNTKVDKKVEPKSCDKTHTCPPCPAPEAAGGPSVFLFPPKPKDTLMISRTPEVTCVVVDVSHEDPEVKFNWYVDGVEVHNAKTKPREEQYNSTYRVVSVLTVLHQDWLNGKEYKCKVSNKALGAPIEKTISKAKGQPREPQVCTLPPSRDELTKNQVSLSCAVKGFYPSDIAVEWESNGQPENNYKTTPPVLDSDGSFFLVSKLTVDKSRWQQGNVFSCSVMHEALHNHYTQKSLSLSP light 1: EVQLLESGGGLVQPGGSLRLSCAASGFYFTDYYMNWVRQAPGKGLEWLGFISNKANAYTTEYSASVKGRFTISRDKSKNTLYLQMNSLRAEDTATYYCTRDRGLRFYFDYWGQGTTVTVSSASVAAPSVFIFPPSDEQLKSGTASVVCLLNNFYPREAKVQWKVDNALQSGNSQESVTEQDSKDSTYSLSSTLTLSKADYEKHKVYACEVTHQGLSSPVTKSFNRGEC heavy 2: not shown light 2: not shown | 0.43 nM | 8.83e-05 s⁻¹ | 205000 M⁻¹ s⁻¹ |
